Measured values from patent publication US20150352233A1.

Target: Membrane Preparation Recombinant Human GLP-1 (GLP-1R) (human) (UniProt P43220)

Q: For “non-labeled exendin4 (peptide; other documents disagree on this pair)”, which IC50 is on record?
A: The IC50 was 0.19 nM.
